Test results: paper PMC3437207, “G-quadruplex recognition activities of E. Coli MutS”
Where a chain is given by its changes, count along the chain named.

What was measured:
MutS [1] = target: T1, MutS (Escherichia coli, UniProt P23909 1-853); assay: EMSA; no nucleotide; 5 mM Mg2+; homoduplex competitor; 20 mM Tris pH 7.6, 5 mM MgCl2, 1 mM DTT, 50 ug/ml BSA, 10 mM KCl, 200 fmol homoduplex competitor, 10-20 fmol labeled DNA in 20 ul; 6% native PAGE 0.5X TBE with; details: protein: recombinant; tags: His; chain copies: 2; label: 5' 32P; blunt; single G-T mismatch at position 14 of strand 1
T1 sequence: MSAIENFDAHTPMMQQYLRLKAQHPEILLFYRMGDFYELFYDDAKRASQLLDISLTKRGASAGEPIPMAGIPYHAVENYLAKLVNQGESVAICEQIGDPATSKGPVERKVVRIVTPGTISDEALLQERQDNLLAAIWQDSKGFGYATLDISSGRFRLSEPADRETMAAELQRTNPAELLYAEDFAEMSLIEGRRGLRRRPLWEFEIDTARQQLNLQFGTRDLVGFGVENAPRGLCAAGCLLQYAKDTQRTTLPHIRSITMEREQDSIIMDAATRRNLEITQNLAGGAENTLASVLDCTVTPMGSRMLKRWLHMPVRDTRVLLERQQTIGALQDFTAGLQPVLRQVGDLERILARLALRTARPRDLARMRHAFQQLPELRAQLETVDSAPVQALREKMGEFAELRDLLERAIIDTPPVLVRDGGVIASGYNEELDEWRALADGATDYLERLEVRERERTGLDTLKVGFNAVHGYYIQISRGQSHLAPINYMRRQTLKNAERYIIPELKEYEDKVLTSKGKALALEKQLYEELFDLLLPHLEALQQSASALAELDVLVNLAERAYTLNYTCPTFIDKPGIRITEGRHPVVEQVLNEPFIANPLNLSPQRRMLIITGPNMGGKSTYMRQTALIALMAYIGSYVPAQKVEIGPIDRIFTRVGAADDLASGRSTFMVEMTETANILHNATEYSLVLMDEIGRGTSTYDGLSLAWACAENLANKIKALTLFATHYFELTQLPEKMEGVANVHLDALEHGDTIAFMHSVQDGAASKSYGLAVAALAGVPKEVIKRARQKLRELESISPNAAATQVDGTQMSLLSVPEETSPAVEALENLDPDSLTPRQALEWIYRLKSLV

MutS [2] = target: T1, MutS; assay: EMSA; 38-150 nM protein; 20 mM Tris pH 7.6, 5 mM MgCl2, 1 mM DTT, 50 ug/ml BSA, 10 mM KCl, 200 fmol homoduplex competitor, 10-20 fmol labeled DNA in 20 ul; 6% native PAGE 0.5X TBE with; details: protein: recombinant; tags: His; chain copies: 2; label: 32P; blunt

B1: G-T mismatch heteroduplex (dsDNA)
DNA 1: CTAGCAAGCTTTCGATTCTAGAAATTCGGC
DNA 2: GCCGAATTTCTAGAATTGAAAGCTTGCTAG
For B1, the binding signal (MutS [1]) was > 2 fold Kd of MutS for TP-G4.

B2: Homoduplex (dsDNA)
DNA 1: B1 DNA 1 with G14A
DNA 2: B1 DNA 2
B2: no binding (MutS [2]).
